Where no end group is shown, it is not given here.

This is an account of results in US6670167B1, “Catalytic domain of the human effector cell cycle checkpoint protein kinase materials and methods for identification of inhibitors thereof” (Agouron Pharmaceuticals, Inc., priority 1999, dated 2003).

In the experiment the target is T1, Chk1 kinase (Homo sapiens, UniProt O14757).
T1 construct: 2 (KH289); made in house; host or cells: baculovirus (Bac-to-Bac, pFastBac-Nde) in Hi-5 insect cells
T1 sequence (O14757 1-289): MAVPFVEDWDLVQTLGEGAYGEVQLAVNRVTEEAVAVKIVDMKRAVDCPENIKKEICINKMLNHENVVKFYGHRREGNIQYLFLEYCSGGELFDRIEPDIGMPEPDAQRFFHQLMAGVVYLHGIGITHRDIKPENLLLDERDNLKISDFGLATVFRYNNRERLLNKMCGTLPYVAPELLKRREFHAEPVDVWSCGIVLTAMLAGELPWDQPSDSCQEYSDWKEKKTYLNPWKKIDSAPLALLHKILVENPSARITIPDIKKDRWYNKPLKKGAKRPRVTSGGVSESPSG
The experiment can be described thus: Peptide substrates tested for activity as Chk1 substrates. As to conditions: Syntide 2 = 100%. It counts as biochemical. As to the method: The enzymatic activity of a kinase is measured by its ability to catalyze the transfer of a phosphate residue from a nucleoside triphosphate to an amino acid side chain in a selected protein target. The conversion of ATP to ADP generally accompanies the catalytic reaction. Herein, a synthetic substrate peptide, Syntide-2, having amino acid sequence PLARTLSVAGLPGKK (SEQ ID NO. 11) was utilized. The production of ADP from ATP that accompanies phosphoryl transfer to the substrate was coupled to oxidation of NADH using phosphoenolpyruvate (PEP) through the actions of pyruvate kinase (PK) and lactic dehydrogenase (LDH). The oxidation of NADH was monitored by following the decrease of absorbance at 340 nm (e340=6.22 cm−1 mM−1) using a HP8452 spectrophotometer. Typical reaction solutions contained: 4 mM PEP, 0.15 mM NADH, 28 units of LDH/mL, 16 units of PK/mL, 3 mM DTT, 0.125 mM Syntide-2, 0.15 mM ATP and 25 mM MgCl2 in 50 mM TRIS pH 7.5; 400 mM NaCl. Assays were initiated with 10 nM of kinase domain of Chk1, KH289. Ki values were determined by measuring initial enzyme activity in the presence of varying concentrations of inhibitors. The data were analyzed using Enzyme Kinetic and Kaleidagraph software.
The following substrates were tested for peptide content and activity:
As described in detail below, an aspect of the invention involves a nonradioactive ELISA based assay suitable for high throughput screening (HTS). The development of the ELISA based CHK1 kinase HTS assay was first initiated with a monoclonal anti-phosphoserine antibody called Clone PSR-45, supplied by Sigma. New Chk peptide substrates, analogues of Syntide2, were synthesized to validate this assay. Biotin-Syntide-2 (SEQ ID NO. 12), and N-terminus acetylated Syntide-2 (SEQ ID NO. 13) and the expected peptide products after CHK phosphorylation, serine phosphorylated Syntide 2 (SEQ ID NO. 15), and serine phosphorylated biotin-Syntide 2 (SEQ ID NO. 16) were synthesized for assay development. […]
As for “KAGAG-PLARTLSVAGLPG-Biotin-K [Syntide 3]”, the “Activity (peptide substrate)” value came out at 67%.
Regarding “PLARTLSVAGLPGKK [Syntide 2, synthetic substrate peptide, reference compound]”, the “Activity (peptide substrate)” value came to 100%.
The value for “Ac-PLARTLSVAGLPG-AGAGAGAK (Ac-PLARTLSVAGLPGAGAGAGAK) [Syntide 4, N-terminus acetylated analogue of Syntide 2]” was 72%.
